The values that follow come from the nanobody polyreactivity screen of Harvey et al. (2022).

A short description of the data set: yeast display, Sf9 membrane polyspecificity reagent, FACS + sequencing; frameworks hold sequencing errors. The gist of the method: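 Galactose-induced (36–48 hours) yeast carrying a synthetic nanobody display library were exposed to 10% biotinylated, detergent-solubilized Sf9 membrane reagent at 4 °C for 1 hour. FACS followed streptavidin microbead enrichment, using low and high (top ~1%) gates for expression (anti-HA) and reagent binding (streptavidin). Colony PCR, MiSeq 2 × 250 sequencing and CDR-length filtering followed. Labels for polyreactivity reflect the gate of origin.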
For the sequence “QVQLVESGGGLVQAGGSLRLSCAASGSIFVWNAMGWYRQAPGKERELVAAITNIGGRTYYADSVKGRFTISRDNAKNTFYLQMNSLKPEDTAVYYCNVVVKGAWDYYPYDYWGQGTQVTVSS”, the “polyreactivity (PSR sort gate)” value is on record as “high polyreactivity”.

Take “QVQLVESGGGLVQAGGSLRLSCAASGSIFVWYAMGWYRQAPGKERELVARITSGGRTNYADSVKGRFTISRDNAKNTVYLQMNSLKPEDTAVYYCAAGRVSWSAYYYWGQGSQVTVSS”: the “polyreactivity (PSR sort gate)” value is reported as “high polyreactivity”.

Regarding “QVQLVESGGGLVQAGGSLRLSCAASGSIFVWYVMGWSRPAAGKERELVAAITWSAARTYYADSVKGRFTISRDNAKNTVYLQMNSLKPEDTAVYYCAADHVSYQPSSRIFDYWGQGTQVTVSS”, the “polyreactivity (PSR sort gate)” value is on record as “low polyreactivity”.

Consider “QVQLVESGGGLVQAGGSLRLSCAASGSIFVWYVMGWYRQAPGKERELVAAITWSAARTYYADSVKGRFTISRDNAKNTVYLQMNSLKPADTAVYYCAADHVSYQPSSRIFDYWGHGTQVTVSS”, for which the “polyreactivity (PSR sort gate)” value is “low polyreactivity”.

Take “QVQLVESGGGLVQAGGSLRLSCAASGSIFVYNAMAWYRPAPGKERELVAAISRGGRTYADSVKGRFTISRDNAKNTVYLQMNSLKPEDTAVYYCAAQGYYRSWYSRQGHYDYWGQGTQVTVSS”: the “polyreactivity (PSR sort gate)” value is “high polyreactivity”.

“QVQLVESGGGLVQAGGSLRLSCAASGSIFVYNAMGWYRHAPGTERELVAAISRRGGSTYYADSVKGRFTISRDNAKNTVYLQMNSLKPEDTAVYYCAAFASATRYDYWGQGTQVTVSS”: the “polyreactivity (PSR sort gate)” value is on record as “high polyreactivity”.

Turning to “QVQLVESGGGLVQAGGSLRLSCAASGSIFVYNAMGWYRQAPGKERELVAAISWSGGRTYYADSVKGRFTISRDNAKNTVYIQMNSLKPEDTAVYYCAARGPTRVPYNYWGQGTQVTVSS”, the “polyreactivity (PSR sort gate)” value is recorded as “high polyreactivity”.

Regarding “QVQLVESGGGLVQAGGSLRLSCAASGSIFVYNAMGWYRQAPGKERELVAGITFIGGSTYYADPVKGRFTISRDNAKNTVYLQMNSLKPEDTAVYYCNADVAPGIFYGYDSWGQGTQVTVSS”, the “polyreactivity (PSR sort gate)” value was “low polyreactivity”.

As to “QVQLVESGGGLVQAGGSLRLSCAASGSIFVYNAMGWYRQAPGKERELVASITWSGGRTYYADSVKGRFTISRDNAKNTVYLQMNSLKPEDTAVYYCAADSPRGYDYWGQGTQVTVSS”, the “polyreactivity (PSR sort gate)” value is “high polyreactivity”.

Consider “QVQLVESGGGLVQAGGSLRLSCAASGSIFVYNAMGWYRQAPRKETEMVAAITSTGRTYYADSVKGRFTISRDNAKNTVYLKMNSLKPEDTGVYYCAATYVWSTLQYKTWQKLTHYGYWGQGTQVTVSS”, for which the “polyreactivity (PSR sort gate)” value is on record as “high polyreactivity”.

Regarding “QVQLVESGGGLVQAGGSLRLSCAASGSIFVYYAMGWYRQAPGKERELVAAISSGDGTNYADSVKGRFTISRDNAKNTVYLQMNSLKPEDTAVYYCNADLDSGYGSYDYWGQGTEVTVSS”, the “polyreactivity (PSR sort gate)” value is given as “low polyreactivity”.

With “QVQLVESGGGLVQAGGSLRLSCAASGSIFVYYAMGWYRQAPGKERELVATIRGSGGSTYYADSVKGRFTISRDNAKNTVYLQMNSLKPEDTAVYYCAATIKYGGRWYGSWGQGTQVTVSS”, the “polyreactivity (PSR sort gate)” value is listed as “high polyreactivity”.

For “QVQLVESGGGLVQAGGSLRLSCAASGSIFVYYAMGWYRQSPGKERELVAAINWSGGSTYYADSVKGRFTISRDNAKKTVYLQMNSLKPEDSAVYYCNAYLSPYDYDYWGQGTQVTLSS”, the “polyreactivity (PSR sort gate)” value was “low polyreactivity”.

On to “QVQLVESGGGLVQAGGSLRLSCAASGSIFVYYGMGWYRQAPGKERELVAAISSGGSTHYADSVKGRFTISRDNAKNTVYFQMNSLKPEDTAVYYCAADRFFWLRSYPRYYYWGQGTQVTVSS”, for which the “polyreactivity (PSR sort gate)” value is “low polyreactivity”.

As for “QVQLVESGGGLVQAGGSLRLSCAASGSIFVYYTMGWYRQAPGKERELVAAISISGTSTYYADSVKGRFTNSRDNAKNTVYLQMNSLKPEDTAVYYCAADTYYGEDYWGQGTQVTVSS”, the “polyreactivity (PSR sort gate)” value is on record as “low polyreactivity”.

In the case of “QVQLVESGGGLVQAGGSLRLSCAASGSIFVYYVMGWYRQAPGKDRELVAAINSDGDGTYYADSVKGRFTISRDNAKNTVYLQMNSLKPEDTAVYYCNALNPKSYDYWGQGTQVTVSS”, the “polyreactivity (PSR sort gate)” value is reported as “low polyreactivity”.

As to “QVQLVESGGGLVQAGGSLRLSCAASGSIFWANAMGWYRQAPGKERELVAAISSSGGRTYYADSVKGRFTISRDNAKNTVYLQMNSLKPEDTAVYYCNKLRLAYYEQGDYWGQGTQVTVSS”, the “polyreactivity (PSR sort gate)” value is reported as “high polyreactivity”.

For “QVQLVESGGGLVQAGGSLRLSCAASGSIFWFNAMGWYRQAPGKEREFVASISRSGGTTYYADSVKGRFTISRDNAKNTVYLQMNSLKPEDTAVYYCNARAYGNGLGTGYFGKHRYDYWGQGTQVTVSS”, the “polyreactivity (PSR sort gate)” value is “low polyreactivity”.

In the case of “QVQLVESGGGLVQAGGSLRLSCAASGSIFWGNAMGWYRQAPGKERELVATISWSAGSTYYADSVKGRFTISRDNAMNTVYLQMNSLKPDDTAVYYCATDVRHSTLYYYWGQGTQVTVSS”, the “polyreactivity (PSR sort gate)” value was “low polyreactivity”.

On to “QVQLVESGGGLVQAGGSLRLSCAASGSIFWGYAMGWYRQAPGKERELVATIRNRGGSTYYADSVKGRFTISRDNAKNTVYLQMNSLKPEDTAVYYCAARFPHRHYLLYTYDYWGQGTQVTVSS”, for which the “polyreactivity (PSR sort gate)” value was “low polyreactivity”.

With “QVQLVESGGGLVQAGGSLRLSCAASGSIFWKYAMGWYRQAPGKERELVAAISRSSSTTYYADSVKGRFTISRDNAKNTVYLQMNSLKPEDTAVYYCAADWRTKGYDSLGQGTQVTVSS”, the “polyreactivity (PSR sort gate)” value is given as “high polyreactivity”.

As for “QVQLVESGGGLVQAGGSLRLSCAASGSIFWLYAMGCYRQAPGKERELVAGISQNGGSTTYADSVKGRFTISRDNAKNTVYFQMNSLKPEDTAVYYCAAKRYGPFKYGYWGQGTQVTVSS”, the “polyreactivity (PSR sort gate)” value is listed as “high polyreactivity”.

Turning to “QVQLVESGGGLVQAGGSLRLSCAASGSIFWLYAMGWYRQAPGKERELVAAIDSGDSTKYADSVKGRFTISRDNAKTTVYLQMNSLKPEDTAVYYCNASRRYHVRAPYDYWGQGTQVTLSS”, the “polyreactivity (PSR sort gate)” value is recorded as “low polyreactivity”.

For “QVQLVESGGGLVQAGGSLRLSCAASGSIFWLYAMGWYRQAPGKERELVAAITWSGGRTYYADSVKGRFTISRDTAKNTVYLQMNSLKPEDTAVYYCARRQWPWYSNPARGGKYDYWGQGTQVTVSS”, the “polyreactivity (PSR sort gate)” value was “low polyreactivity”.

Turning to “QVQLVESGGGLVQAGGSLRLSCAASGSIFWNNAMGWYRQAPGKERELVAAISKSGTRTYYADSVKGRFTISRDNAKNTFYLQMNSLKPEDTAVYYCAKDPYGRLQPRPRFGYWGQGTQVTVSS”, the “polyreactivity (PSR sort gate)” value is “high polyreactivity”.

“QVQLVESGGGLVQAGGSLRLSCAASGSIFWNYAMGWYRQAPGKERELVASITSGGSTNYADSVKGRFTISRDNEKNTVYLQMNSLKQEDTAVYSCNTDDDSSYTGYYSWGQGTQVTVSS”: the “polyreactivity (PSR sort gate)” value is reported as “low polyreactivity”.

Regarding “QVQLVESGGGLVQAGGSLRLSCAASGSIFWPNAMGWYRQAPGKERELVASITRAGSTNYADSVKGRFTISRDNAQNTVYLQMNSLKPEDTAVYYCAAYFWGGYNYWGQGTQVTVSS”, the “polyreactivity (PSR sort gate)” value is on record as “low polyreactivity”.

As to “QVQLVESGGGLVQAGGSLRLSCAASGSIFWPNVMGWYRQAPGKDRELVAAIRSDGSTYYADSVKGRFTISRDNAKNTVYLQMNSLKPEDAAVYYCATKFFRQTIYRAKYNYWGQGTQVTVSS”, the “polyreactivity (PSR sort gate)” value is recorded as “low polyreactivity”.

With “QVQLVESGGGLVQAGGSLRLSCAASGSIFWPYAKGWYRQAPGKERELVAAISSSGTSTYYADSVKGRFTISRDNAKNTVYLQMNSLKPEDTAVYYCAKELFTYPYEYWGQGTQVTVSS”, the “polyreactivity (PSR sort gate)” value is “low polyreactivity”.

Regarding “QVQLVESGGGLVQAGGSLRLSCAASGSIFWQNTMGWYRQAPGKERELVAAISWSGGRTYYADSVKGRFTISRDNAKNTVYLQMNSLKPEDTAVYYCAAAFSPGWWSRHTYDYDYWGQGTQVTVSS”, the “polyreactivity (PSR sort gate)” value is on record as “high polyreactivity”.
